The record followed here is the supplement of paper PMC5998384.

Data set [1] has as its system HeLa Kyoto. Kind of data set: solubility in G1/S (NP-40 vs SDS abundance) (log2 ratio); higher = more soluble. Conditions: cell cycle stage: G1/S.
Data set [2] deals with HeLa Kyoto. The experiment in a line: thermal stability score vs G1/S (z-score of summed log2 fold changes over temperatures); higher = more thermally stable than in G1/S.
The subject of data set [3] is HeLa Kyoto. The experiment in a line: melting temperature (median over replicates), in situ; higher = more thermally stable.
Data set [4] relates to HeLa Kyoto. Kind of data set: solubility change mitosis vs G1/S (difference of NP-40 vs SDS log2 ratios) (log2 ratio difference); higher = more soluble in mitosis.
The mark [5] stands for this setting: cell cycle stage: early G1 (4.5 h after nocodazole release).
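For melting temperature (median over replicates), in situ in this document: HeLa Kyoto cells synchronized by double thymidine or nocodazole block, proteins quantified by TMT10plex mass spectrometry, three independent biological replicates.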
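For solubility change mitosis vs G1/S (difference of NP-40 vs SDS log2 ratios) in this document: synchronized HeLa Kyoto cells (double thymidine block for G1/S, nocodazole release for mitosis), protein amounts in NP-40 versus SDS lysates quantified by mass spectrometry, three biological replicates.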
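For solubility in G1/S (NP-40 vs SDS abundance) in this document: HeLa Kyoto cells arrested at G1/S by double thymidine block, proteins quantified by TMT10plex mass spectrometry in mild NP-40 versus SDS extracts, three biological replicates.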
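For thermal stability score vs G1/S (z-score of summed log2 fold changes over temperatures) in this document: synchronized HeLa Kyoto cells, proteins quantified by TMT10plex mass spectrometry, three biological replicates, mitosis taken 0.5 h after nocodazole release, G1/S directly after double thymidine block.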

Regarding “MGTPQKDVIIKSDAPDTLLLEKHADYIASYGSKKDDYEYCMSEYLRMSGIYWGLTVMDLMGQLHRMNREEILAFIKSCQHECGGISASIGHDPHLLYTLSAVQILTLYDSINVIDVNKVVEYVKGLQKEDGSFAGDIWGEIDTRFSFCAVATLALLGKLDAINVEKAIEFVLSCMNFDGGFGCRPGSESHAGQIYCCTGFLAITSQLHQVNSDLLGWWLCERQLPSGGLNGRPEKLPDVCYSWWVLASLKIIGRLHWIDREKLRNFILACQDEETGGFADRPGDMVDPFHTLFGIAGLSLLGEEQIKPVNPVFCMPEEVLQRVNVQPELVS [RABGGTB]”, the “solubility in G1/S (log2)” value with HeLa Kyoto [1] came out at 0.122. The figures for the thermal stability score with HeLa Kyoto [2] (setting [5]) and in the data set with HeLa Kyoto [2] (cell cycle stage: mitosis) were -0.232 and 1.64, respectively. Besides, the melting temperature worked out at 49.8 °C with HeLa Kyoto [3] (cell cycle stage: G1/S) and 50.3 °C with HeLa Kyoto [3] (cell cycle stage: mitosis). The “solubility change mitosis (log2)” value with HeLa Kyoto [4] was -0.347.

On to “MGTPRAQHPPPPQLLFLILLSCPWIQGLPLKEEEILPEPGSETPTVASEALAELLHGALLRRGPEMGYLPGSDRDPTLATPPAGQTLAVPSLPRATEPGTGPLTTAVTPNGVRGAGPTAPELLTPPPGTTAPPPPSPASPGPPLGPEGGEEETTTTIITTTTVTTTVTSPVLCNNNISEGEGYVESPDLGSPVSRTLGLLDCTYSIHVYPGYGIEIQVQTLNLSQEEELLVLAGGGSPGLAPRLLANSSMLGEGQVLRSPTNRLLLHFQSPRVPRGGGFRIHYQAYLLSCGFPPRPAHGDVSVTDLHPGGTATFHCDSGYQLQGEETLICLNGTRPSWNGETPSCMASCGGTIHNATLGRIVSPEPGGAVGPNLTCRWVIEAAEGRRLHLHFERVSLDEDNDRLMVRSGGSPLSPVIYDSDMDDVPERGLISDAQSLYVELLSETPANPLLLSLRFEAFEEDRCFAPFLAHGNVTTTDPEYRPGALATFSCLPGYALEPPGPPNAIECVDPTEPHWNDTEPACKAMCGGELSEPAGVVLSPDWPQSYSPGQDCVWGVHVQEEKRILLQVEILNVREGDMLTLFDGDGPSARVLAQLRGPQPRRRLLSSGPDLTLQFQAPPGPPNPGLGQGFVLHFKEVPRNDTCPELPPPEWGWRTASHGDLIRGTVLTYQCEPGYELLGSDILTCQWDLSWSAAPPACQKIMTCADPGEIANGHRTASDAGFPVGSHVQYRCLPGYSLEGAAMLTCYSRDTGTPKWSDRVPKCALKYEPCLNPGVPENGYQTLYKHHYQAGESLRFFCYEGFELIGEVTITCVPGHPSQWTSQPPLCKVTQTTDPSRQLEGGNLALAILLPLGLVIVLGSGVYIYYTKLQGKSLFGFSGSHSYSPITVESDFSNPLYEAGDTREYEVSI [SEZ6L2]”, for which the “solubility in G1/S (log2)” value with HeLa Kyoto [1] is -0.174. Besides, the thermal stability score in the data set with HeLa Kyoto [2] (setting [5]) is -0.928; in the data set with HeLa Kyoto [2] (cell cycle stage: mitosis), -1.52. Also, the melting temperature in the data set with HeLa Kyoto [3] (cell cycle stage: G1/S) came out at 53.7 °C; with HeLa Kyoto [3] (cell cycle stage: mitosis), 54.8 °C. Also, the “solubility change mitosis (log2)” value in the data set on HeLa Kyoto [4] turned out to be 0.0248.

With “MGTQKVTPALIFAITVATIGSFQFGYNTGVINAPEKIIKEFINKTLTDKGNAPPSEVLLTSLWSLSVAIFSVGGMIGSFSVGLFVNRFGRRNSMLIVNLLAVTGGCFMGLCKVAKSVEMLILGRLVIGLFCGLCTGFVPMYIGEISPTALRGAFGTLNQLGIVVGILVAQIFGLEFILGSEELWPLLLGFTILPAILQSAALPFCPESPRFLLINRKEEENAKQILQRLWGTQDVSQDIQEMKDESARMSQEKQVTVLELFRVSSYRQPIIISIVLQLSQQLSGINAVFYYSTGIFKDAGVQEPIYATIGAGVVNTIFTVVSLFLVERAGRRTLHMIGLGGMAFCSTLMTVSLLLKDNYNGMSFVCIGAILVFVAFFEIGPGPIPWFIVAELFSQGPRPAAMAVAGCSNWTSNFLVGLLFPSAAHYLGAYVFIIFTGFLITFLAFTFFKVPETRGRTFEDITRAFEGQAHGADRSGKDGVMEMNSIEPAKETTTNV [SLC2A3]”, the “solubility in G1/S (log2)” value in the data set on HeLa Kyoto [1] was -0.0807. The thermal stability score in the data set with HeLa Kyoto [2] (setting [5]) was -2.61; in the data set on HeLa Kyoto [2] (cell cycle stage: mitosis) it was -5.18. Moreover, the values for the melting temperature in the data set on HeLa Kyoto [3] (cell cycle stage: G1/S) and in the data set on HeLa Kyoto [3] (cell cycle stage: mitosis) were 62.7 °C and 59.1 °C, respectively. Besides, the “solubility change mitosis (log2)” value in the data set with HeLa Kyoto [4] is -0.0464.

Turning to “MGTVHARSLEPLPSSGPDFGGLGEEAEFVEVEPEAKQEILENKDVVVQHVHFDGLGRTKDDIIICEIGDVFKAKNLIEVMRKSHEAREKLLRLGIFRQVDVLIDTCQGDDALPNGLDVTFEVTELRRLTGSYNTMVGNNEGSMVLGLKLPNLLGRAEKVTFQFSYGTKETSYGLSFFKPRPGNFERNFSVNLYKVTGQFPWSSLRETDRGMSAEYSFPIWKTSHTVKWEGVWRELGCLSRTASFAVRKESGHSLKSSLSHAMVIDSRNSSILPRRGALLKVNQELAGYTGGDVSFIKEDFELQLNKQLIFDSVFSASFWGGMLVPIGDKPSSIADRFYLGGPTSIRGFSMHSIGPQSEGDYLGGEAYWAGGLHLYTPLPFRPGQGGFGELFRTHFFLNAGNLCNLNYGEGPKAHIRKLAECIRWSYGAGIVLRLGNIARLELNYCVPMGVQTGDRICDGVQFGAGIRFL [SAMM50]”, in the data set on HeLa Kyoto [1], the “solubility in G1/S (log2)” value is -0.348. Moreover, the thermal stability score in the data set with HeLa Kyoto [2] (setting [5]) was -2.61; in the data set on HeLa Kyoto [2] (cell cycle stage: mitosis), -4.33. Also, the melting temperature came to 56.1 °C in the data set on HeLa Kyoto [3] (cell cycle stage: G1/S) and 54.6 °C with HeLa Kyoto [3] (cell cycle stage: mitosis). Also, in the data set with HeLa Kyoto [4], the “solubility change mitosis (log2)” value was -0.0834.

In the case of “MGVQGFQDYIEKHCPSAVVPVELQKLARGSLVGGGRQRPPQTPLRLLVDADNCLHRLYGGFYTDWVSGGQWNHMLGYLAALAKACFGGNIELFVFFNGALEKARLHEWVKRQGNERQTAQQIVSHVQNKGTPPPKVWFLPPVCMAHCIRLALIRFHVKVAQSIEDHHQEVIGFCRENGFHGLVAYDSDYALCNIPYYFSAHALKLSRNGKSLTTSQYLMHEVAKQLDLNPNRFPIFAALLGNHILPDEDLASFHWSLLGPEHPLASLKVRAHQLVLPPCDVVIKAVADYVRNIQDTSDLDAIAKDVFQHSQSRTDDKVIRFKRAIGYYSATSKPMSFHPPHYLAARPGPFGMPGMVPPHVPPQMLNIPQTSLQAKPVAPQVPSPGGAPGQGPYPYSLSEPAPLTLDTSGKNLTEQNSYSNIPHEGKHTPLYERSSPINPAQSGSPNHVDSAYFPGSSTSSSSDNDEGSGGATNHISGNKIGWEKTGSHSEPQARGDPGDQTKAEGSSTASSGSQLAEGKGSQMGTVQPIPCLLSMPTRNHMDITTPPLPPVAPEVLRVAEHRHKKGLMYPYIFHVLTKGEIKIAVSIEDEANKDLPPAALLYRPVRQYVYGVLFSLAESRKKTERLAFRKNRLPPEFSPVIIKEWAAYKGKSPQTPELVEALAFREWTCPNLKRLWLGKAVEDKNRRMRAFLACMRSDTPAMLNPANVPTHLMVLCCVLRYMVQWPGARILRRQELDAFLAQALSPKLYEPDQLQELKIENLDPRGIQLSALFMSGVDMALFANDACGQPIPWEHCCPWMYFDGKLFQSKLLKASREKTPLIDLCDGQADQAAKVEKMRQSVLEGLSFSRQSHTLPFPPPPALPFYPASAYPRHFGPVPPSQGRGRGFAGVCGFGGPYGETVATGPYRAFRVAAASGHCGAFSGSDSSRTSKSQGGVQPIPSQGGKLEIAGTVVGHWAGSRRGRGGRGPFPLQVVSVGGPARGRPRGVISTPVIRTFGRGGRYYGRGYKNQAAIQGRPPYAASAEEVAKELKSKSGESKSSAMSSDGSLAENGVMAEEKPAPQMNGSTGDARAPSHSESALNNDSKTCNTNPHLNALSTDSACRREAALEAAVLNKEE [FAM120A]”, in the data set on HeLa Kyoto [1], the “solubility in G1/S (log2)” value was -0.143. In addition, the thermal stability score with HeLa Kyoto [2] (setting [5]) was -0.707; in the data set with HeLa Kyoto [2] (cell cycle stage: mitosis), -2.24. Further, the values for the melting temperature with HeLa Kyoto [3] (cell cycle stage: G1/S) and in the data set with HeLa Kyoto [3] (cell cycle stage: mitosis) were 50.9 °C and 50.6 °C, respectively. Besides, the “solubility change mitosis (log2)” value in the data set with HeLa Kyoto [4] was -0.0663.

Consider “MHPAGLAAAAAGTPRLRKWPSKRRIPVSQPGMADPHQLFDDTSSAQSRGYGAQRAPGGLSYPAASPTPHAAFLADPVSNMAMAYGSSLAAQGKELVDKNIDRFIPITKLKYYFAVDTMYVGRKLGLLFFPYLHQDWEVQYQQDTPVAPRFDVNAPDLYIPAMAFITYVLVAGLALGTQDRFSPDLLGLQASSALAWLTLEVLAILLSLYLVTVNTDLTTIDLVAFLGYKYVGMIGGVLMGLLFGKIGYYLVLGWCCVAIFVFMIRTLRLKILADAAAEGVPVRGARNQLRMYLTMAVAAAQPMLMYWLTFHLVR [YIF1B]”, for which, in the data set with HeLa Kyoto [1], the “solubility in G1/S (log2)” value turned out to be 0.0319. Besides, the thermal stability score with HeLa Kyoto [2] (setting [5]) is -0.959; in the data set with HeLa Kyoto [2] (cell cycle stage: mitosis) it was -1.51. Further, the melting temperature with HeLa Kyoto [3] (cell cycle stage: G1/S) worked out at 53.5 °C; in the data set on HeLa Kyoto [3] (cell cycle stage: mitosis), 54.8 °C. In the data set with HeLa Kyoto [4], the “solubility change mitosis (log2)” value was -0.373.
